The text below walks through data of patent US20210238276A1 (INTEGRAL MOLECULAR, published 2021).

Common to all, as to experiment: flow cytometry, alanine-scan library in HEK-293T, with cytochalasin B
In general terms: A flow cytometer gives signals particle by particle.

Experiment [1] has as its target T1, hsGLUT4 M112A (human, UniProt P14672 1-509).
T1 sequence: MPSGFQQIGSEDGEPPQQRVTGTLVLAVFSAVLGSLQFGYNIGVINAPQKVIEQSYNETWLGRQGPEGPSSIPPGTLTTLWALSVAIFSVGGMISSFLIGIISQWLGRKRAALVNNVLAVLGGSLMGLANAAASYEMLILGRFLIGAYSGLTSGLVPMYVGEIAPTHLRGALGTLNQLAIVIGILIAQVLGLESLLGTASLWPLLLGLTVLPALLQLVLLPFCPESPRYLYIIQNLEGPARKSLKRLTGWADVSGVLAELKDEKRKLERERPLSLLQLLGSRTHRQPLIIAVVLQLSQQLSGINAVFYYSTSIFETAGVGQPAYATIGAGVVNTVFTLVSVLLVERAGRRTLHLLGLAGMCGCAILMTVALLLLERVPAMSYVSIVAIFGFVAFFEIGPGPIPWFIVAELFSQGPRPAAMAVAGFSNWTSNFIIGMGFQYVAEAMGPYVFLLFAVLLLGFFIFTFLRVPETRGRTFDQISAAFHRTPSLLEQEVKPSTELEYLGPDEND
In a few lines:
(§1)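 HEK-293T cells expressing individual GLUT4 alanine mutants were stained 48 h post-transfection with anti-GLUT4 scFv MAbs (2 μg/ml), then biotinylated secondary and streptavidin-PerCP, and read by high-throughput flow cytometry. Where used, cytochalasin B (10 uM final) was given for 30 min before and during primary antibody staining.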

Experiment [2] concerns the target T2, hsGLUT4 L247A (human, UniProt P14672 1-509).
T2 sequence: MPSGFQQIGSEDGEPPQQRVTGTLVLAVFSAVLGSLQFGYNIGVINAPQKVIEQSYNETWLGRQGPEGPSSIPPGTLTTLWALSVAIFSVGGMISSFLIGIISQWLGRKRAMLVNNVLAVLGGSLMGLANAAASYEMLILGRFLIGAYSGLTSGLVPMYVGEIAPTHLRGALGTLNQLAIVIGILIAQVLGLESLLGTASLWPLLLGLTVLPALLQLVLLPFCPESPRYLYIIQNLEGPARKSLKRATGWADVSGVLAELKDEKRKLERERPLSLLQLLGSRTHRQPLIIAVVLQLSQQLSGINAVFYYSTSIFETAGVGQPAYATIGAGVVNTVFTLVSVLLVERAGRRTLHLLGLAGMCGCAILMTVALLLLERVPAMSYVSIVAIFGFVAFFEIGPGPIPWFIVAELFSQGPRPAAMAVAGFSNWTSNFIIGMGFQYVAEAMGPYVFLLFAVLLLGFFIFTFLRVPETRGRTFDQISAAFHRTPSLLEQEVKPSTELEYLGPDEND
An outline of the steps:
as §1

Experiment [3] deals with T3, hsGLUT4 N304A (human, UniProt P14672 1-509).
T3 sequence: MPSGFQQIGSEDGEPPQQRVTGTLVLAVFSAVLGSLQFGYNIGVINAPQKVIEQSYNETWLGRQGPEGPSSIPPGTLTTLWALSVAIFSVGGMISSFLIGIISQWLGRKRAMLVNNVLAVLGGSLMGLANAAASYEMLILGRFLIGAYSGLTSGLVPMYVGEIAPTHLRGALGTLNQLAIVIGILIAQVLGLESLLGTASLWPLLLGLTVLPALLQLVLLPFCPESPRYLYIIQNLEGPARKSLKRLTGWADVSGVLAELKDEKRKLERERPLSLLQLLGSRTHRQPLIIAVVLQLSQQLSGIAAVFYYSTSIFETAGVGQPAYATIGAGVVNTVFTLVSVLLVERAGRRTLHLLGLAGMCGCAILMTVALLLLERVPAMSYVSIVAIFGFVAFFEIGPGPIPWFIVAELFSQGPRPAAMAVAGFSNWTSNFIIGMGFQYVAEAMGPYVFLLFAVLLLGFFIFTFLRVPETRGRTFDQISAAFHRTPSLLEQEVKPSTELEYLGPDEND
An outline of the steps: as §1

In experiment [4] the target is T4, hsGLUT4 G446A (human, UniProt P14672 1-509).
T4 sequence: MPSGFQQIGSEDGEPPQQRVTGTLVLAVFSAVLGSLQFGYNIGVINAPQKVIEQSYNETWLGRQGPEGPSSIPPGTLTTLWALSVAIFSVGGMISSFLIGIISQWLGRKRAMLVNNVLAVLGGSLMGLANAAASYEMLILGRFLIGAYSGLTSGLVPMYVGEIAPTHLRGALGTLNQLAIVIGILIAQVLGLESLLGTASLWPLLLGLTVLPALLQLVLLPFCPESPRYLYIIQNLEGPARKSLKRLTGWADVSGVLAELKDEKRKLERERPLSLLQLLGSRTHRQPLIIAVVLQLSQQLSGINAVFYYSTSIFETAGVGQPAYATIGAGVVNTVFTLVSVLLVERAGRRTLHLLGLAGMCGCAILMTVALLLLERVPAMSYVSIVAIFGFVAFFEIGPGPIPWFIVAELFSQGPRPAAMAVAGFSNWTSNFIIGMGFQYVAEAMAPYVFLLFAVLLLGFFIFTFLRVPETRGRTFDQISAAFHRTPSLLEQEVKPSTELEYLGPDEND
An outline of the steps: as §1

B1: AB102 (Fc fusion)
scFv: ALTQPSSVSANLGGTVKITCSGGGSYGYGWYQQKSPGSAPVTVIYSNDQRPSDIPSRFSGSKSGSTATLTITGVRAEDEAIYYCGSTDSDYVGIFGAGTTLTVLGQSSRSSGGGGSSGGGGSAVTLDESGGGLQTPGGTLSLVCKASGFDFSSYATIWVRQAPGKGLEWVAGISGTGTGSSTGYAPAVKGRATISRDNGQSTVRLQLNNLRAEDTGSYFCAKSTGYGDSWIYPDSIDAWGHGTEVIVSS
notes: also called MAb AB102; not shown: Fc fragment of human IgG1, cloned in frame with the scFv
As to B1, the “% of binding to wild type GLUT4” value in experiment [1] worked out at 23%; in experiment [2], 15%; in experiment [3] it was 112%; in experiment [4], 43%.
